# Biological target: T1, cAMP-dependent protein kinase (PKA) type I regulatory subunit isoform α, full-length wild type (UniProt P00514 1-380)
# T1 construct: PKA type I regulatory subunit α (RIα), full length, UniProtKB P00514 used for the HDXMS peptide search; Cloned in pRSETA; for FP loaded with 8-fl-cAMP or 2'-fl-cAMP; also called RIα; WT RIα
# Test: fluorescence polarisation; about 1 uM RIα preloaded with 8-fl-cAMP or 2'-fl-cAMP (excess ligand removed by SEC), about 2 uM PDE8 added; polarisation followed over 120 min; 96-well plates; excess cAMP (25 or 100 uM) added at 20 min in some runs
# Details: both partners purified
# T1 sequence (P00514 whole entry, canonical isoform): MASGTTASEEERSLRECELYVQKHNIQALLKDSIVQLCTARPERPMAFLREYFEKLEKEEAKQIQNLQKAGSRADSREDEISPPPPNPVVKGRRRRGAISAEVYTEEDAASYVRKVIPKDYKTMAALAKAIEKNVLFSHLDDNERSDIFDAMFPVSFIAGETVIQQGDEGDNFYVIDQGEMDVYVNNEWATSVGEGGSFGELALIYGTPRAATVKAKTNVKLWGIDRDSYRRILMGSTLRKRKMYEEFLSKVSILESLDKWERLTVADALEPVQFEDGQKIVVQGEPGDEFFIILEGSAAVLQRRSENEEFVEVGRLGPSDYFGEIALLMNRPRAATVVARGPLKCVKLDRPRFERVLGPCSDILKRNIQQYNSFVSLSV
row,binding result,Binder
1,binds,"catalytic domain of wild-type PDE8A1 (472-829) (domain or fragment, UniProt O60658-1 472-829, looked up, PDE8A catalytic domain, residues 472-829 of PDE8A1, UniProtKB O60658 used for the HDXMS peptide search; Cloned in pET-Duet1; also called PDE8 WT; WT PDE8) SSNIITPISLDDVPPRIARAMENEEYWDFDIFELEAATHNRPLIYLGLKMFARFGICEFLHCSESTLRSWLQIIEANYHSSNPYHNSTHSADVLHATAYFLSKERIKETLDPIDEVAALIAATIHDVDHPGRTNSFLCNAGSELAILYNDTAVLESHHAALAFQLTTGDDKCNIFKNMERNDYRTLRQGIIDMVLATEMTKHFEHVNKFVNSINKPLATLEENGETDKNQEVINTMLRTPENRTLIKRMLIKCADVSNPCRPLQYCIEWAARISEEYFSQTDEEKQQGLPVVMPVFDRNTCSIPKSQISFIDYFITDMFDAWDAFVDLPDLMQHLDNNFKYWKGLDEMKLRNLRPPPE"
2,binds,"PDE8A catalytic domain (472-829) T690P (domain or fragment, UniProt O60658 472-829, looked up, PDE8A catalytic domain, residues 472-829 of PDE8A1, UniProtKB O60658, with T690P (made as the equivalent of the acrodysostosis mutation PDE4D T594P); Cloned in pET-Duet1; also called PDE8 T690P; PDE8c T690P) SSNIITPISLDDVPPRIARAMENEEYWDFDIFELEAATHNRPLIYLGLKMFARFGICEFLHCSESTLRSWLQIIEANYHSSNPYHNSTHSADVLHATAYFLSKERIKETLDPIDEVAALIAATIHDVDHPGRTNSFLCNAGSELAILYNDTAVLESHHAALAFQLTTGDDKCNIFKNMERNDYRTLRQGIIDMVLATEMTKHFEHVNKFVNSINKPLAPLEENGETDKNQEVINTMLRTPENRTLIKRMLIKCADVSNPCRPLQYCIEWAARISEEYFSQTDEEKQQGLPVVMPVFDRNTCSIPKSQISFIDYFITDMFDAWDAFVDLPDLMQHLDNNFKYWKGLDEMKLRNLRPPPE"

# Source: article PMC10552185, “Impaired cAMP processivity by phosphodiesterase-protein kinase A complexes in acrodysostosis” (Frontiers in Molecular Biosciences, 2023)
